The source of these data is patent US20260098092A1 (CHULALONGKORN UNIVERSITY, published 2026).

B1: mCUSB0125 (antibody, V domains shown)
VH: DVQLRESGPGLVKPSQSLSLTCTVTGYSITSDYAWNWIRQFPGNKLEWMGYIYYSGTTSYNPSLKSRISITRDTSKNQFFLQLNSVTTEDTATYYCARNYGSAFYYFDYWGQGTTLTVSS
VL: DILMTQSPSSMSVSLGDTVTITCHASQGISSNIGWLQQKPGKSFKGLIYRGTNLEDGVPSRFSGSGSGADYSLTISSLESEDFADYYCVQYAQFPPTFGGGTKLEIK
notes: Mouse monoclonal antibody purified from hybridoma
B2: mCUSB0136 (antibody, V domains shown)
VH: QVQLKESGPGLVAPSQSLSITCTVSGFSLTTYDIIWIRQSPGKGLEWLGVIWTGGDTNYNSAFMSRLSISKDNSKSQIFLKMNSLQTDDTAIYYCVRDWAYWGQGTLVTVST
VL: NIVLTQSPASLAVSLGQRATISCRASESVDNYGNSFIQWYQQKPGQPPKLLIYFASNLQSGVPARFSGSGSRTDFTLTIDPVEADDAATYYCHQNNEDPFTFGSGTKLEIK
notes: as for B1
B3: xCUSB0125 (antibody, human IgG4, V domains shown)
VH: B1 VH
VL: B1 VL
notes: Chimeric: mouse variable regions joined to human IgG4/kappa constant regions; also called chimeric CUSB0125; not shown: human IgG4 constant region, UniProt P01861; human kappa constant region, UniProt P01834
B4: xCUSB0123 (antibody, human IgG4, V domains shown)
VH: QVQLQQSGPELVRPGESVKISCKGSGYTFTDYVMHWVKQSHAKSLEWIGVITIYNDITNYNQKFKGKATMTIDKSSSTAYMELARLTSEDSAIYYCAREGYDSYWYFDVWGAGTTVTVSS
VL: DVLMTQTPLSLPVSLGDQASISCRSSQTIVHSNGNTYLEWYLQKPGQSPKLLIYKVSNRFSGVPDRFSGSGSGTDFTLKISRVEAEDLGVYYCFQGSHLPYTFGGGTKLEIK
notes: Chimeric: mouse variable regions joined to human IgG4/kappa constant regions; also called chimeric CUSB0123; not shown: human IgG4 constant region, UniProt P01861; human kappa constant region, UniProt P01834
B5: xCUSB0103 (antibody, human IgG4, V domains shown)
VH: DVKLVESGGGLVKPGGSLKLSCAASGFTFSSYTMSWVRQTPEKRLEWVAAISGGGSYTYYADSVKGRFTISRDNAKNTLSLQMSSLKSEDTAMYFCTSPYDFAMDYWGQGTSVTVSS
VL: DIQMTQTTSSLSASLGDRVTISCRASQDITNYLNWYQQKPDGSVKLLIYYTSRLHSGVPSRFRGSGSGTDYSLTISNLEQEDIATYFCQQGNTLPWTFGGGTKLEIK
notes: Chimeric: mouse variable regions joined to human IgG4/kappa constant regions; also called chimeric CUSB0103; not shown: human IgG4 constant region, UniProt P01861; human kappa constant region, UniProt P01834
B6: xCUSB0136 (antibody, human IgG4, V domains shown)
VH: B2 VH
VL: B2 VL
notes: Chimeric: mouse variable regions joined to human IgG4/kappa constant regions; also called chimeric CUSB0136; xCUSBO136; not shown: human IgG4 constant region, UniProt P01861; human kappa constant region, UniProt P01834
B7: xCUSB0124 (antibody, human IgG4, V domains shown)
VH: QIQLVQSGPELKKPGETVKISCKASGYIFTNYGVTWVKQTPGKGLKWMTWINTNTGEPTSAEEFKGRFDFSSETSATTAYLQINNLKNEDTATYFCVRIRENAMDYWGQGTSVTVSS
VL: DIQMTQSPASQSASLGESVTITCLASQTIGTWLAWYQQKPGKSPQLLIYAATRLAVGVPSRFSGSGSGTKFSFKISRLQAEDFVSYYCQQLYSTPFTFGSGTKLEIK
notes: Chimeric: mouse variable regions joined to human IgG4/kappa constant regions; also called chimeric CUSB0124; not shown: human IgG4 constant region, UniProt P01861; human kappa constant region, UniProt P01834
B8: xCUSB0126 (antibody, human IgG4, V domains shown)
VH: VKLVESGGDLVKPGGSLKLSCAASGFPFSSYLMSWVRQTPEKRLEWVAAISGGGRDTYYPDNVKGRFTISRDNARNILYLQMSSLRSEDTAVYYCATRGSYAMDYWGQGTSVTVSS
VL: B7 VL with L46I, R53N, V56D, R77S, T94I, F96W, S100G
notes: Chimeric: mouse variable regions joined to human IgG4/kappa constant regions; also called chimeric CUSB0126; not shown: human IgG4 constant region, UniProt P01861; human kappa constant region, UniProt P01834
B9: xCUSB0129 (antibody, human IgG4, V domains shown)
VH: B8 VH with D9G, N62S, V92L, T97R
VL: B7 VL with L46I, A50D, R53N, V56D, R77S, T94I, F96W, S100G
notes: Chimeric: mouse variable regions joined to human IgG4/kappa constant regions; also called chimeric CUSB0129; not shown: human IgG4 constant region, UniProt P01861; human kappa constant region, UniProt P01834
B10: zCUSB0125.9 (antibody, human IgG4, V domains shown)
VH: QVQLQESGPGLVKPSQTLSLTCTVSGYSITSDYAWNWIRQPPGKGLEWMGYIYYSGTTSYNPSLKSRISITRDTSKNQFSLKLSSVTAADTAVYYCARNYGSAFYYFDYWGQGTTLTVSS
VL: DIQMTQSPSSVSASVGDRVTITCHASQGISSNIGWLQQKPGKAFKGLIYRGTNLEDGVPSRFSGSGSGTDYTLTISSLQPEDFATYYCVQYAQFPPTFGGGTKLEIK
notes: domain: human IgG4 constant region; Humanized; human IgG4 S228P and kappa constant regions; also called CUSB0125-BMVH.3 with CUSB0125-BMVL.3; not shown: human kappa constant region
B11: zCUSB0125.6 (antibody, human IgG4, V domains shown)
VH: B10 VH with S69T, T71S, V93T
VL: B10 VL
notes: domain: human IgG4 constant region; Humanized; human IgG4 S228P and kappa constant regions; also called CUSB0125-BMVH.2 with CUSB0125-BMVL.3; not shown: human kappa constant region
B12: zCUSB0125.3 (antibody, human IgG4, V domains shown)
VH: B10 VH with M49I, I68V, S69T, T71S, R72V
VL: B10 VL
notes: domain: human IgG4 constant region; Humanized; human IgG4 S228P and kappa constant regions; also called CUSB0125-BMVH.1 with CUSB0125-BMVL.3; not shown: human kappa constant region
B13: zCUSB0125.12 (antibody, human IgG4, V domains shown)
VH: B10 VH with P41F, G45K
VL: B10 VL
notes: domain: human IgG4 constant region; Humanized; human IgG4 S228P and kappa constant regions; also called CUSB0125-BMVH.4 with CUSB0125-BMVL.3; not shown: human kappa constant region

Substitutions are numbered along the chain they refer to. Numbers in names are those of the source.

For orientation: EC50 means the concentration at which the effect is half-maximal. As a reminder, the Kd is a measure of binding affinity in units of concentration. What is called koff is a measure of how fast the partners let go of each other. What is called kon is the second-order rate constant of association.

T2 sequence (Q15116 25-167 limits assumed): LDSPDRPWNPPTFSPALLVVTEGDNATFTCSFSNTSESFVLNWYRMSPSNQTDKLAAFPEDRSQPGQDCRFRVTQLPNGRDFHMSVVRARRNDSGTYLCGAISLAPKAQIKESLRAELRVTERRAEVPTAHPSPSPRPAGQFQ

In one experiment the target is T1, human PD-1 on PD-1-expressing Jurkat effector cells (human, UniProt Q15116 25-288). As to the kind of experiment: cell-based or functional assay.
T1 sequence (Q15116 25-288): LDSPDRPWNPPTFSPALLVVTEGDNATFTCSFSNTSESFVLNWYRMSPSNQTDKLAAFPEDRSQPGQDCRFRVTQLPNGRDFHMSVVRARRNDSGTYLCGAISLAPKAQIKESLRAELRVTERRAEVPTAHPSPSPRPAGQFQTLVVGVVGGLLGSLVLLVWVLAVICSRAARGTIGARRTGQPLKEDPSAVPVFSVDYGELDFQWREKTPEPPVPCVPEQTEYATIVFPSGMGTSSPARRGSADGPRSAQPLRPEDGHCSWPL
As to B1, the “PD-1/PD-L1 blockade bioassay, IC50” value amounted to 2.71 µg/mL.
Consider B2, for which the “PD-1/PD-L1 blockade bioassay, IC50” value was 1.21 µg/mL.

The target in a further experiment is T1, human PD-1 on PD-1-expressing Jurkat …. As to the kind of experiment: cell-based or functional assay. The source holds these as a separate data set.
Consider B3, for which the “PD-1/PD-L1 blockade bioassay, IC50” value was found to be 0.302 µg/mL.
For B4, the “PD-1/PD-L1 blockade bioassay, IC50” value amounted to 0.957 µg/mL.
On the same count and under the same terms, the result for B5 reads 0.593 µg/mL.
Same read-out and setting: the same measure for B6: 0.372 µg/mL; for B7: 2.93 µg/mL; for B8: 0.43 µg/mL.
Still for that read-out and setting: the result for B9 reads 0.455 µg/mL.

The target is the same in a further experiment. Kind of experiment: cell-based or functional assay. This is another data set of the same source.
As for B10, the “PD-1/PD-L1 blockade bioassay, IC50” value turned out to be 0.462 µg/mL.
The same measure, in the same setting: the result for B11 reads 0.297 µg/mL; that for B12, 2.41 µg/mL.
Same read-out and setting: the same measure for B13: 0.312 µg/mL.

The next experiment has the same target. Kind of experiment: cell-based or functional assay. This is another data set of the same source.
Regarding B3, the “IC50 (read off the curve)” value was roughly 0.3 µg/mL.

The next experiment shares this target. As to the kind of experiment: cell-based or functional assay. The source holds these as a separate data set.
Consider B6, for which the “IC50 (read off the curve)” value is roughly 0.4 µg/mL.

The next experiment concerns the target T2, recombinant human PD-1 His-tag protein (R&D Systems) (human, UniProt Q15116 25-167).
T2 construct: Bought reagent; Used for the ELISA (coated) and for SPR (analyte); also called PD-1 protein; human PD-1 protein; not shown: His-tag
Kind of experiment: ELISA, PD-1 His-tag coated on plate, anti-mouse IgG Fc-HRP detection. As to the method:
(§1) ELISA technique was used to select hybridoma mini-pools producing anti-PD-1 antibodies using the following procedure. MaxiSorp ELISA plate was coated with PD-1 His-tag (R&D System) in PBS buffer (10 ng/100 μL/well) at 4° C. overnight. […] The culture supernatant of each mini-pool (100 μL) was added to the plate then incubated for 1 hour at 37° C. After washing, the plate was probed with goat anti-mouse IgG Fcγ-HRP (Jackson Immuno Research) diluted 1:8,000 in PBST (100 μL/well) and incubated for 1 hour at 37° C. […] 1 M H₂SO₄ (50 μL/well) was used to stop the reaction. […] Hybridoma mini-pools with absorbance values of more than 1.0 were selected for further screening.
The purified antibodies were 2-fold serial diluted for eleven rounds starting from 2 μg/mL until reaching the final concentration of 0.977 ng/mL. The PD-1 binding activity of purified antibodies was evaluated by ELISA following the procedure mentioned in Example 2. The half-maximal effective concentration (EC₅₀) was calculated using GraphPad Prism® software.
(In general: In an ELISA, binding on a coated surface is turned into a signal by an enzyme label.)
Regarding B1, the EC50 was determined as 0.109 µg/mL.
As to B2, the concentration for a half-maximal effect (EC50) was found to be 0.0342 µg/mL.

For a further experiment, the target named is T2, recombinant human PD-1 His-tag protein …. Kind of experiment: ELISA, PD-1 His-tag coated on plate, anti-human IgG Fc-HRP detection. The method, then:
as §1
The purified chimeric antibodies were 2-fold serial diluted for eleven rounds starting from […] until reaching the final concentration of 0.977 ng/mL. The PD-1 binding activity of purified chimeric antibodies was evaluated by ELISA following the procedure mentioned in Example 2, while the goat anti-human IgG Fcγ-HRP antibody (Jackson Immuno Research) diluted 1:10.000 in PBST was used to detect chimeric antibodies.
For B3, the 50% effective concentration (EC50) was found to be 0.0201 µg/mL.
B4: the EC50 amounted to 0.0353 µg/mL.
On the same count and under the same terms, the result for B5 reads 0.0284 µg/mL; that for B6, 0.0154 µg/mL.
The same measure, in the same setting: the same measure for B7: 0.0894 µg/mL; for B8: 0.0437 µg/mL; for B9: 0.0347 µg/mL.

A further experiment has the same target. As to the kind of experiment: SPR, Biacore T200, as in Example 8 (antibody on Protein G chip, PD-1 His-tag injected). The method, then: (§2) The Biacore T200 instrument, equipped with a Protein G sensor chip (GE Healthcare), was used to determine the binding kinetics between chimeric anti-PD-1 antibodies and PD-1 protein. Each purified chimeric anti-PD-1 antibody (1 μg/mL) was injected into the chip with a flow rate of 30 μL/min for 60 sec. […] The HBS-EP+buffer (GE Healthcare) was used as a buffer blank and diluent. The association constant (kₒₙ), dissociation constant (koff), and equilibrium constant (KD) values were calculated using Biacore T200 evaluation software (version 3.1) with a 1:1 Langmuir binding model curve fitting.
Consider B10, for which the Kd was determined as 0.249 nM, the off-rate (koff) came to 0.000746 s⁻¹ and the kon came out at 2.99e+06 M⁻¹ s⁻¹.
In the case of B11, the Kd came to 0.227 nM, the dissociation rate constant (koff) is 0.000721 s⁻¹ and the kon turned out to be 3.18e+06 M⁻¹ s⁻¹.
For B12 the same measures were 3.28 nM, 0.00944 s⁻¹ and 2.88e+06 M⁻¹ s⁻¹.
The like results for B13 were, in that order, 0.182 nM, 0.000579 s⁻¹ and 3.18e+06 M⁻¹ s⁻¹.

A further experiment shares this target. As to the kind of experiment: SPR, Biacore T200, antibody captured on Protein G chip, PD-1 His-tag injected, single-cycle kinetics, 1:1 model. The method, then: as §2
Background: Surface plasmon resonance follows binding to a sensor surface in real time, without labels.
For B3, the Kd was determined as 0.18 nM, the off-rate (koff) amounted to 0.000512 s⁻¹ and the kon was 2.84e+06 M⁻¹ s⁻¹.
The like results for B4 were, in that order, 1.23 nM, 0.000366 s⁻¹ and 298000 M⁻¹ s⁻¹.
For the molecule B5, the Kd is 0.448 nM, the koff was 0.000292 s⁻¹ and the kon turned out to be 653000 M⁻¹ s⁻¹.
In the case of B6, the equilibrium dissociation constant (Kd) is 0.083 nM, the off-rate (koff) worked out at 0.000193 s⁻¹ and the kon was found to be 2.3e+06 M⁻¹ s⁻¹.
As for B7, the Kd stood at 5.92 nM, the dissociation rate constant (koff) turned out to be 0.000912 s⁻¹ and the association rate constant (kon) was determined as 154000 M⁻¹ s⁻¹.
For B8 the same measures were 0.577 nM, 0.000285 s⁻¹ and 493000 M⁻¹ s⁻¹.
In the case of B9, the Kd turned out to be 0.621 nM, the koff is 0.000293 s⁻¹ and the kon was 471000 M⁻¹ s⁻¹.
